The record followed here is the Human Domainome abundance scans (Beltran et al. 2025).

± gives the uncertainty stated by the source.

B1: Dystrobrevin alpha, residues 235 to 294; numbered along this chain, Q9Y4J8 (parent)
chain: ENVFHPVECSYCHSESMMGFRYRCQQCHNYQLCQDCFWRGHAGGSHSNQHQMKEYTSWKS
B2: Lysine-specific demethylase 2B, residues 656 to 722; numbered along this chain, Q8NHM5 (parent)
chain: LPHTAVCLVCGEAGKEDTVEEEEGKFNLMLMECSICNEIIHPGCLKIKESEGVVNDELPNCWECPKC

In one data set the parent is B1. Briefly: abundance fitness (aPCA) (normalised: wild type 0, dead -1); higher = more abundant; growth selection in yeast, the domain comes from the species named. Particulars: Homo sapiens.
As to ENVFHPVECSYCHSESMMGFRYRCQQCHNYQLCQDCFWRGHAGGSHSNSHQMKEYTSWKS [Q49S], the abundance fitness turned out to be 0.029 ± 0.036.
With ENVFHPVECSYCHSESMSGFRYRCQQCHNYQLCQDCFWRGHAGGSHSNQHQMKEYTSWKS [M18S], the abundance fitness amounted to 0.133 ± 0.052.
Consider ENVFHPVECSYCHSESMFGFRYRCQQCHNYQLCQDCFWRGHAGGSHSNQHQMKEYTSWKS [M18F], for which the abundance fitness is 0.126 ± 0.088.
Same read-out and setting: the value for ENVFHPVECSYCHSESMMGFRYRCQQCHQYQLCQDCFWRGHAGGSHSNQHQMKEYTSWKS [N29Q] was 0.1 ± 0.074.
In the case of ENVFHPVECSYCHSESMMGFRYRCQQCHHYQLCQDCFWRGHAGGSHSNQHQMKEYTSWKS [N29H], the abundance fitness was -0.075 ± 0.091.
With ENVFHPVECSYCHSESMMGFRYRCQQCHNYQLCQDCFWRGHAGGSHSNQHQMKEYTSWQS [K59Q], the abundance fitness amounted to 0.126 ± 0.12.
Regarding ENVFHPVECSYCHSESMMGFRYRCQQCHNYNLCQDCFWRGHAGGSHSNQHQMKEYTSWKS [Q31N], the abundance fitness was -0.202 ± 0.2.
On to ENVFHPVECSYCHSESMMGFRYRCQQCHNYQLCQDCFWRGFAGGSHSNQHQMKEYTSWKS [H41F], for which the abundance fitness is -0.044 ± 0.077.
In the case of ENVFHPVECSYCHSESMMGFRYRCQQCHNYQLCQDCFWRGHAGTSHSNQHQMKEYTSWKS [G44T], the abundance fitness is -0.26 ± 0.099.
Take ENVFHPVECSYCHSESMMGFRYRCQQCHNYQLCQACFWRGHAGGSHSNQHQMKEYTSWKS [D35A]: the abundance fitness was -0.093 ± 0.074.
As to ENVFHPVECSYCHSESMMGFRYRCQQCHNYQLCQRCFWRGHAGGSHSNQHQMKEYTSWKS [D35R], the abundance fitness is -0.089 ± 0.044.
For ENVFHPVECSYCHSESMMGFRYRCQQCHNYQQCQDCFWRGHAGGSHSNQHQMKEYTSWKS [L32Q], the abundance fitness is -0.455 ± 0.13.
The same measure, in the same setting: the value for ENVFHPVECSYCHSESMMGFRYRCQQCHNYQKCQDCFWRGHAGGSHSNQHQMKEYTSWKS [L32K] was -0.538 ± 0.18.
On to ENVFHPVECSYCHSESMMGFRYRCQQCHNYQLCQDCFWRGHVGGSHSNQHQMKEYTSWKS [A42V], for which the abundance fitness amounted to 0.005 ± 0.062.
Same read-out and setting: the value for ENVFHPVECSYCHSESMMGFRYRCQQCHNYQLCQDCFWRGHQGGSHSNQHQMKEYTSWKS [A42Q] was -0.071 ± 0.1; that for ENVFHPVECSYCHSESMMGFRYRCQQCHNYQLCQDCFWRGHAGGSHSNQHQMKEYTSWKH [S60H] was 0.112 ± 0.26.
Consider ENVFHPVECSYCHSSSMMGFRYRCQQCHNYQLCQDCFWRGHAGGSHSNQHQMKEYTSWKS [E15S], for which the abundance fitness came out at 0.03 ± 0.049.
Turning to ENVFHPVECSYCHSNSMMGFRYRCQQCHNYQLCQDCFWRGHAGGSHSNQHQMKEYTSWKS [E15N], the abundance fitness was found to be 0.03 ± 0.11.
Still for that read-out and setting: the value for ENVTHPVECSYCHSESMMGFRYRCQQCHNYQLCQDCFWRGHAGGSHSNQHQMKEYTSWKS [F4T] was 0.06 ± 0.066; that for ENVYHPVECSYCHSESMMGFRYRCQQCHNYQLCQDCFWRGHAGGSHSNQHQMKEYTSWKS [F4Y] was 0.084 ± 0.085; that for ENVFHPVECSYCHSESMMGFRYRCQQCHNYQLCGDCFWRGHAGGSHSNQHQMKEYTSWKS [Q34G] was -0.027 ± 0.11.
Regarding ENVFHPVECSYCHSESMMGFRYRCQQCHNYQLCMDCFWRGHAGGSHSNQHQMKEYTSWKS [Q34M], the abundance fitness is -0.302 ± 0.14.
Consider ENVFHPVECSYCHSESMMGFRYRCQQCHNYQLCQDCFWRGHAGGSHSNQHQMKEYTSTKS [W58T], for which the abundance fitness is 0.258 ± 0.075.
With ENVFHPVECSYCHSESMMGFRYRCQQCHNYQLCQDCFWRGHAGGSHSNQHQMKEYTSEKS [W58E], the abundance fitness is 0.297 ± 0.097.
For ENVFHPVECSYCHSESMMGFRYRCQQCHNYQLCQDCFWRGHAGGSHSNQHQMKEYTSFKS [W58F], the abundance fitness was -0.021 ± 0.083.

Variants of B2 are the subject of a further data set. The data set is described as above. The note with it: Homo sapiens.
As to LPHTAVCLVCGEAGKEDTVEEEEGKFNLMLMECSICNEIIHPGCLKIKESEGVVNDELPNCWECPWC [K66W], the abundance fitness was -0.846 ± 0.24.
Same read-out and setting: the value for LPHTAVCLVCGEAGKEDTVEEEEGKFNLMLMECSICNEIIHPGCLKIKESEGVVNDELPNCWECPSC [K66S] was -0.284 ± 0.098; that for LPHTAVCLVCGEAGKEDTVEEEEGKFNLMLMECSICNEIIHPGCLKIKESEGVVNDELPNCWECPPC [K66P] was -0.049 ± 0.16.
Same read-out and setting: then LPHTAVCLVCGEAGKEDTVEEEEGKFNLMLMECSICNEIIHPGCLKIKESEGVVNDELPNCWECPTC [K66T], with -0.079 ± 0.11; and LPHTAVCLVCGEAGKEDTVEEEEGKFNLMLMECSICNEIIHPGCLKIKESEGVVNDELPNCWECPVC [K66V], with -0.173 ± 0.24; and LPHTAVCLVCGEAGKEDTVEEEEGKFNLMLMECSICNEIIHPGCLKIKESEGVVNDELPNCWECPRC [K66R], with -0.145 ± 0.084.
As to LPHTAVCLVCGEAGKEDTVEEEEGKFNLMLMECSICNEIIHPGCLKIKESEGVVNDELPNCWECPQC [K66Q], the abundance fitness was -0.551 ± 0.25.
The same measure, in the same setting: the value for LPHTAVCLVCGEAGKEDTVEEEEGKFNLMLMECSICNEIIHPGCLKIKESEGVVNDELPNCWECPMC [K66M] was -0.434 ± 0.14; that for LPHTAVCLVCGEAGKEDTVEEEEGKFNLMLMECSICNEIIHPGCLKIKESEGVVNDELPNCWECPKP [C67P] was -0.867 ± 0.34; that for LPHTAVCLVCGEAGKEDTVEEEEGKFNLMLMECSICNEIIHPGCLKIKESEGVVNDELPNCWECPKY [C67Y] was -1.08 ± 0.29.
On to LPHTAVCLVCGEAGKEDTVEEEEGKFNLMLMECSICNEIIHPGCLKIKESEGVVNDELPNCWECPKA [C67A], for which the abundance fitness is -0.676 ± 0.17.
Take LPHTAVCLVCGEAGKEDTVEEEEGKFNLMLMECSICNEIIHPGCLKIKESEGVVNDELPNCWECPKR [C67R]: the abundance fitness was -1.26 ± 0.43.
The same measure, in the same setting: then LPHTAVCLVCGEAGKEDTVEEEEGKFNLMLMECSICNEIIHPGCLKIKESEGVVNDELPNCWECPKE [C67E], with -0.596 ± 0.41.
On the same count and under the same terms, then LPHTAVCLVCGEAGKEDTVEEEEGKFNLMLMECSICNEIIHPGCLKIKESEGVVNDELPNCWECPKK [C67K], with -0.667 ± 0.24; and LPHTAVCLVCGEAGKEDTVEEEEGKFNLMLMECSICNEIIHPGCLKIKESEGVVNDELPNCWECPKT [C67T], with -0.462 ± 0.27; and LPHTAVCLVCGEAGKEDTVEEEEGKFNLMLMECSICNEIIHPGCLKIKESEGVVNDELPNCWECPKG [C67G], with -0.992 ± 0.18.
Same read-out and setting: then LPHTAVCLVCGEAGKEDTVEEEEGKFNLMLMECSICNEIIHPGCLKIKESEGVVNDELPNCWECPKH [C67H], with -0.28 ± 0.22; and LPHTAVCLVCGEAGKEDTVEEEEGKFNLMLMECSICNEIIHPGCLKIKESEGVVNDELPNCWECPKW [C67W], with -1.43 ± 0.48; and LPHTAVCLVCGEAGKEDTVEEEEGKFNLMLMECSICNEIIHPGCLKIKESEGVVNDELPNCWECPKL [C67L], with -1.03 ± 0.32.
